From paper doi:10.1101/2024.09.22.614354 (bioRxiv, 2024) come the findings set out here.

Assay in all cases: fluorescence polarisation
(In general: Polarisation of emitted light reports the rotation of a fluorescent probe.)

Test [1] has as its target T1, Rb^P I703F (human, UniProt P06400 380-788, I703F).
T1 sequence: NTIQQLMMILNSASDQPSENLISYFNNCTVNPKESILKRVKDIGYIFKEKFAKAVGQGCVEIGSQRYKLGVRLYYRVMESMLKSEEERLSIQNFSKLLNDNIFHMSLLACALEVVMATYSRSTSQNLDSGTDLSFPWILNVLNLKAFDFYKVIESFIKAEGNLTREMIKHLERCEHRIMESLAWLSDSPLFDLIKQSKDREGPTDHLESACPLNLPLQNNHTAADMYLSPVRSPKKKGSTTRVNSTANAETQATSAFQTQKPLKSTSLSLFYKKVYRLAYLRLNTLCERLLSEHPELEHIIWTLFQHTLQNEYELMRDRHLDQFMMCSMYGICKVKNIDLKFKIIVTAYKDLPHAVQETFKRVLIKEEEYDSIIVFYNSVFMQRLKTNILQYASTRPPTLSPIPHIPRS

Test [2] concerns the target T2, Rb^P M695I (human, UniProt P06400 380-788, M695I).
T2 sequence: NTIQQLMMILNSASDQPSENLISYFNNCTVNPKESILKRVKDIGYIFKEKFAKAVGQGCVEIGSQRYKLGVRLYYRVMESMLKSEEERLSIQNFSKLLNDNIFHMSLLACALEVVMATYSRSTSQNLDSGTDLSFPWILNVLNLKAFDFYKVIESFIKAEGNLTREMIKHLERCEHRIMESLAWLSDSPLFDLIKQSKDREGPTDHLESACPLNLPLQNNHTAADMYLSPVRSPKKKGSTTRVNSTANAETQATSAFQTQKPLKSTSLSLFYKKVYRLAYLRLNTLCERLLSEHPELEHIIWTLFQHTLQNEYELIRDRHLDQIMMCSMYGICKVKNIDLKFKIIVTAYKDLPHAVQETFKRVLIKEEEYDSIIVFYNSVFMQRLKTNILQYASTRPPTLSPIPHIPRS

The target in test [3] is T3, Rb^P S474I (human, UniProt P06400 380-788, S474I).
T3 sequence: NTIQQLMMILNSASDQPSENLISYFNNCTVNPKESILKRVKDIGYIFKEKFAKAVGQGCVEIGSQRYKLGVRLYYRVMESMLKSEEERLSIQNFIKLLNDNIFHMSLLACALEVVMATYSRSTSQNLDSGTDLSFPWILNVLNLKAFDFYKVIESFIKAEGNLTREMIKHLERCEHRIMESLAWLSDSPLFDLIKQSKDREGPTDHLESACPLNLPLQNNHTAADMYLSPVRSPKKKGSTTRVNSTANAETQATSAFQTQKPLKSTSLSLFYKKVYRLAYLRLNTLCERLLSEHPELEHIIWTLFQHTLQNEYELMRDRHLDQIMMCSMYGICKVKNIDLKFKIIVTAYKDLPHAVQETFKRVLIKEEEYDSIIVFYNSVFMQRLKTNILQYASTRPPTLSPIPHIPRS

Test [4] concerns the target T4, Rb^P I703V (human, UniProt P06400 380-788, I703V).
T4 sequence: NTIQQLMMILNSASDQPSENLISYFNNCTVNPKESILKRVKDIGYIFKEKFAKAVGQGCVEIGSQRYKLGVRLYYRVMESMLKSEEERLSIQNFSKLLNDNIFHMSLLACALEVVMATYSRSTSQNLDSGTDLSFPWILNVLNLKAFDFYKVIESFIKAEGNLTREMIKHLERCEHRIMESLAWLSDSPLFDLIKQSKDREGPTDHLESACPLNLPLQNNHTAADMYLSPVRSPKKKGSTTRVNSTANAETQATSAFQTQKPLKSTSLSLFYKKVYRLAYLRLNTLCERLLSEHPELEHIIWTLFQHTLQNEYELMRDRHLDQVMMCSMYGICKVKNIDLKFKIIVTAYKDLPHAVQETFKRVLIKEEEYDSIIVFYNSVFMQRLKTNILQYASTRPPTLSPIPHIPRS

Test [5] addresses T5, Rb^P E492Q (human, UniProt P06400 380-788, E492Q).
T5 sequence: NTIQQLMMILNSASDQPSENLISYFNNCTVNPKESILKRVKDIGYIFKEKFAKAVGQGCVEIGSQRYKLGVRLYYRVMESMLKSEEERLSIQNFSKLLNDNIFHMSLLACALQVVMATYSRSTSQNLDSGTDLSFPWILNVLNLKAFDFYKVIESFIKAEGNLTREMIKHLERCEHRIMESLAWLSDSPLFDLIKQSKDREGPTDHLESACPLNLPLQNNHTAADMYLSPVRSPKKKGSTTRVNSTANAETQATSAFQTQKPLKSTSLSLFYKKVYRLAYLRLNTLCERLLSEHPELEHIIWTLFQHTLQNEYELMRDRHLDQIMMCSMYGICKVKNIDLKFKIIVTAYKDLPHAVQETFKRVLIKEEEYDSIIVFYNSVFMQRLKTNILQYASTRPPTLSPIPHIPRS

B1: TMR-E7^LxCxE (LxCxE peptide of the E7 oncoprotein from HPV, TMR-labeled) (peptide)
peptide: DLYCYEQLN
modifications: not fully specified; TMR fluorescent label (TMR-E7^LxCxE)
Regarding B1, the Kd (commonly the concentration at which binding is half-saturated) in test [1] is 16 nM. The binding result in test [2], in test [3], in test [4] and in test [5] was “binds” each time.
